Experimental data as given in patent publication US20090162353A1 (MacroGenics, published 2009).

Key:
[1] = target: T1, vaccinia virus recombinant B5 protein (vaccinia virus, UniProt Q01227 20-275); experiment: surface plasmon resonance; format not stated; target taken from the text
[2] = target: T1, vaccinia virus recombinant B5 protein; experiment: ELISA, B5 capture, IgG detect (luminescence) [C]

B1: Ch8AH8AL (antibody, V domains shown)
VH: EVQLVESGGGLIKPGGSLRLSCAASGFIFRDYNINWVRQAPGKGLEWLGFIRTRASGRSTEYSASVKGRFTISRDDSKNIAYLHINSLKMEDTAVYYCAKKGDSYYYMDFWGKGTAVTVSS
VL: ELALTQPASVSGSPGQSITISCTGGRSDLGDSNFVSWYQQYPGKAPKLLIYQVNKRPSGVPDRFSASKSANTASLTISGLQTEDEADYFCSSYTTTSTYVFGIGTKVVVLG
How did the Kd [1] turn out when B1 was run?
Its Kd is ≤ 0.6 nM.

And the koff [1]?
The koff was ≤ 1e-05 s⁻¹.

What about the kon [1] of the same binder?
Its kon is 20000 M⁻¹ s⁻¹.

What about the “EC50 (read off the curve)” value [2] of the same binder?
Its value is ~0.03 µg/mL.
